Measured values as given in US20250076311A1 (Chugai, published 2025).
Changes are numbered by the printed parent chain. Each block holds one binder with its values, some of them ahead of it.

How the values were obtained:
[1] = biological target: T1, cynomolgus monkey FcγRIIIaS extracellular domain with C-terminal His-tag (cynomolgus monkey, UniProt Q8SPW2 21-206 at identity 1.00)); test: SPR (Biacore), KD of SG1 / KD of variant
T1 construct: also called cyno FcgRIIIaS; cynoFcγRIIIaS
T1 chain: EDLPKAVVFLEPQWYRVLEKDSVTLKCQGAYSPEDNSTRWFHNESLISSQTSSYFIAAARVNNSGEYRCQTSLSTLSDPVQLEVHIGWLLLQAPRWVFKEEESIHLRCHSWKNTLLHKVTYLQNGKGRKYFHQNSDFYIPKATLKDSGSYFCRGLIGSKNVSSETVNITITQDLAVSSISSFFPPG

[2] = biological target: T2, human FcγRIIaR extracellular domain with C-terminal His-tag (human, UniProt P12318 34-217); test: SPR (Biacore), antibody captured, FcgR analyte
T2 construct: also called human FcgRIIaR; FcγRIIa (type R)
T2 chain: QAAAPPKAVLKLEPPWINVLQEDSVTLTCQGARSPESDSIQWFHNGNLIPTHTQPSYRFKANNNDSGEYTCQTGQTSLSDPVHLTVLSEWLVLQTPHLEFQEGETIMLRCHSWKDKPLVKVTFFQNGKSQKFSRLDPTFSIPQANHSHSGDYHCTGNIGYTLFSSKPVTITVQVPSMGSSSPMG

[3] = biological target: T3, human FcγRIIaH extracellular domain with C-terminal His-tag (human, UniProt P12318 34-217); test: SPR (Biacore), KD of SG1 / KD of variant
T3 construct: also called human FcgRIIaH; FcγRIIa (type H)
T3 sequence: T2 chain with R134H

[4] = biological target: T4, cynomolgus monkey FcγRIIa3 extracellular domain with C-terminal His-tag (cynomolgus monkey); test: SPR (Biacore), KD of SG1 / KD of variant
T4 construct: also called cyno FcgRIIa3; cynoFcγRIIa3
T4 chain: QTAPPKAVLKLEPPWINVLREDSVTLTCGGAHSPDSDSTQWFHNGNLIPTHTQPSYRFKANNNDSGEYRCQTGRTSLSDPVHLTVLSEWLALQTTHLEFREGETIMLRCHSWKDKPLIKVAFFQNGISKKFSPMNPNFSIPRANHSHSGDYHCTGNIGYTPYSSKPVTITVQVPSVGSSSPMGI

[5] = biological target: T5, cynomolgus monkey FcγRIIb extracellular domain, His-tagged (cynomolgus monkey); test: SPR (BIACORE), antibody captured, FcγR analyte, 25 C; KD of SG1 divided by KD of variant
T5 construct: also called cyno FcγRIIb; cynoFcgRIIb
T5 chain: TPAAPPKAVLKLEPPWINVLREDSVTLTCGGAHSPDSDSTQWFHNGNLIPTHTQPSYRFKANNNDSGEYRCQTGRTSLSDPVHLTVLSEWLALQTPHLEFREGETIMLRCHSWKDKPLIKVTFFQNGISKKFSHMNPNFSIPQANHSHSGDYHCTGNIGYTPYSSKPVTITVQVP

[6] = biological target: T6, human FcγRIIIaV extracellular domain, His-tagged (human, UniProt P08637 17-208); test: as above
T6 construct: also called human FcγRIIIa (V158); FcgRIIIaV
T6 sequence (P08637 17-208 F176V): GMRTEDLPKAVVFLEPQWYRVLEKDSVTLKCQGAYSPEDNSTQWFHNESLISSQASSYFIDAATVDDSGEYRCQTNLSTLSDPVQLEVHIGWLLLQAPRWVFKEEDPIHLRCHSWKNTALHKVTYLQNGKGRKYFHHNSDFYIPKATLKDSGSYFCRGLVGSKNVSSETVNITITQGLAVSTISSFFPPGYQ

[7] = biological target: T7, cynomolgus monkey FcγRIIIaS extracellular domain, His-tagged (cynomolgus monkey, UniProt Q8SPW2 21-206 at identity 1.00)); test: as above
T7 construct: also called cyno FcγRIIIaS; cynoFcgRIIIaS
T7 chain: T1 chain

[8] = biological target: T8, human FcγRIIIaV extracellular domain with C-terminal His-tag (human, UniProt P08637 17-208); test: SPR (Biacore), KD of SG1 / KD of variant
T8 construct: also called human FcgRIIIaV
T8 sequence (P08637 17-208 F176V): as above

[9] = biological target: T2, human FcγRIIaR extracellular domain …; test: SPR (Biacore), KD of SG1 / KD of variant
[10] = biological target: T9, human FcγRIIaH extracellular domain, His-tagged (human, UniProt P12318 34-217); test: SPR (BIACORE), antibody captured, FcγR analyte, 25 C; KD of SG1 divided by KD of variant
T9 construct: also called human FcγRIIa (type H); FcgRIIaH
T9 sequence: T2 chain with R134H

[11] = biological target: T10, cynomolgus monkey FcγRIIa2 extracellular domain with C-terminal His-tag (cynomolgus monkey); test: SPR (Biacore), KD of SG1 / KD of variant
T10 construct: also called cyno FcgRIIa2; cynoFcγRIIa2
T10 chain: T4 chain with I127K, K130N, P133H, R142Q

[12] = biological target: T8, human FcγRIIIaV extracellular domain …; test: SPR (Biacore), antibody captured, FcgR analyte
[13] = biological target: T3, human FcγRIIaH extracellular domain …; test: SPR (Biacore), antibody captured, FcgR analyte
[14] = biological target: T1, cynomolgus monkey FcγRIIIaS …; test: SPR (Biacore), antibody captured, FcgR analyte
[15] = biological target: T11, cynomolgus monkey FcγRIIIaS extracellular domain with C-terminal His-tag (cynomolgus monkey, UniProt Q8SPW2 21-206 at identity 1.00)); test: SPR; KD of SG1 / KD of variant
T11 construct: also called cyno FcγRIIIaS; FcgRIIIaS
T11 chain: T1 chain

[16] = biological target: T12, cynomolgus monkey FcγRIIa1 extracellular domain with C-terminal His-tag (cynomolgus monkey); test: SPR; KD of SG1 / KD of variant
T12 construct: also called cyno FcγRIIa1; FcgRIIa1
T12 chain: T4 chain with T95P, A121T, S128A, P133H, N135D

[17] = biological target: T13, cynomolgus monkey FcγRIIa3 extracellular domain with C-terminal His-tag (cynomolgus monkey); test: SPR; KD of SG1 / KD of variant
T13 construct: also called cyno FcγRIIa3; FcgRIIa3
T13 chain: T4 chain

[18] = biological target: T14, human FcγRIIaR extracellular domain with C-terminal His-tag (human, UniProt P12318 34-217); test: SPR; KD of SG1 / KD of variant
T14 construct: also called human FcγRIIa (type R); FcgRIIaR
T14 chain: T2 chain

B1: M103205H795-MY441/M103202L889-SK1 (antibody, human IgG1, kappa)
heavy: QVTLKESGPVLVKPTETLTLTCTVSGIDLSHDDISWVRQAPGKGLEWVGIISYAGSTYYASWAKGRLTISKDTSKNQVVLTMTNMDPVDTATYYCARGVPAYSHGGDLWGQGTLVTVSSASTKGPSVFPLAPSSKSTSGGTAALGCLVKDYFPEPVTVSWNSGALTSGVHTFPAVLQSSGLYSLSSVVTVPSSSLGTQTYICNVNHKPSNTKVDKKVEPKSCDKTHTCPPCPAAELLTGPSVFLFPPKPKDTLMISRTPEVTCVVVDVSDEDPEVKFNWYVDGVEVHNAKTKPREEQYNSTYRVVSVLTVLHQDWLNGKEYKCKVSNKALPKPIEKTISKAKGQPREPQVYTLPPSREEMTKNQVSLTCLVKGFYPSDIAVEWESNGQPENNYKTTPPVLDSDGSFFLYSKLTVDKSRWQQGNVFSCSVMHEALHNHYTQKSLSLSP
light: DIVMTQSPATLSLSPGERATLSCTSSQSVYHANWLSWFQQKPGQPPKLLIYWASTLAYGVPSRFSGSGSGTDFTLTISSLQPEDAATYYCAGGYGGGRYAFGQGTKVEIKRTVAAPSVFIFPPSDEQLKSGTASVVCLLNNFYPREAKVQWKVDNALQSGNSQESVTEQDSKDSTYSLSSTLTLSKADYEKHKVYACEVTHQGLSSPVTKSFNRGEC
notes: Substitutions in EU numbering on SG1
KD fold (SG1 = 1) [1]: 0.2 fold
Kd [2]: 600 nM

B3: M103205H795-MY443/M103202L889-SK1 (antibody, human IgG1, kappa)
heavy: B1 heavy with A234E
light: B1 light
notes: as for B1
KD fold (SG1 = 1) [1]: 0.2 fold
KD fold (SG1 = 1) [3]: 1.5 fold
KD fold (SG1 = 1) [4]: 1.5 fold

B4: M103205H795-MY454/M103202L889-SK1 (antibody, human IgG1, kappa, name in EU numbering)
heavy: B1 heavy with A234S
light: B1 light
KD fold (SG1 = 1) [5]: 1.8 fold
KD fold (SG1 = 1) [6]: 0.2 fold
KD fold (SG1 = 1) [7]: 0.2 fold

B5: M103205H795-MY444/M103202L889-SK1 (antibody, human IgG1, kappa)
heavy: B1 heavy with A234F
light: B1 light
notes: as for B1
KD fold (SG1 = 1) [3]: 6.5 fold
KD fold (SG1 = 1) [8]: 0.2 fold
KD fold (SG1 = 1) [4]: 8.9 fold
KD fold (SG1 = 1) [9]: 7.5 fold

B8: M103205H795-MY449/M103202L889-SK1 (antibody, human IgG1, kappa)
heavy: B1 heavy with A234L
light: B1 light
notes: as for B1
Kd [13]: 98 nM

B12: M103205H795-MY452/M103202L889-SK1 (antibody, human IgG1, kappa, name in EU numbering)
heavy: B1 heavy with A234Q
light: B1 light
KD fold (SG1 = 1) [10]: 2.9 fold
KD fold (SG1 = 1) [7]: 0.2 fold

B13: M103205H795-MY273 (heavy chain) with M103202L889-SK1 (light chain) (antibody, human IgG1, kappa, name in EU numbering)
heavy: B1 heavy with A234P, T238L, P398K
light: B1 light
notes: Substitutions introduced into M103205H795-SG1; positions in EU numbering
KD fold (SG1 = 1) [15]: 0.21 fold
KD fold (SG1 = 1) [16]: 0.9 fold

B14: M103205H795-MY449/M103202L889-SK1 (antibody, human IgG1, kappa, name in EU numbering)
heavy: B1 heavy with A234L
light: B1 light
KD fold (SG1 = 1) [6]: 0.2 fold

B15: M103205H795-MY271 (heavy chain) with M103202L889-SK1 (light chain) (antibody, human IgG1, kappa, name in EU numbering)
heavy: B1 heavy with A234P, T238V, P398K
light: B1 light
notes: as for B13
KD fold (SG1 = 1) [15]: 0.41 fold
KD fold (SG1 = 1) [17]: 5.5 fold
KD fold (SG1 = 1) [16]: 4.2 fold
KD fold (SG1 = 1) [18]: 4 fold

B16: M103205H795-MY453/M103202L889-SK1 (antibody, human IgG1, kappa, name in EU numbering)
heavy: B1 heavy with A234R
light: B1 light
KD fold (SG1 = 1) [5]: 0.9 fold
KD fold (SG1 = 1) [6]: 0.2 fold
KD fold (SG1 = 1) [7]: 0.2 fold

The next lines start with the values.

KD fold (SG1 = 1) [1]: 0.2 fold
B2: M103205H795-MY460/M103202L889-SK1 (antibody)
chain 1: B1 heavy with A233E, A234P
chain 2: B1 light

KD fold (SG1 = 1) [10]: 2.7 fold
KD fold (SG1 = 1) [7]: 0.2 fold
B6: M103205H795-MY455/M103202L889-SK1 (antibody, human IgG1, kappa, name in EU numbering)
heavy: B1 heavy with A234T
light: B1 light

KD fold (SG1 = 1) [8]: 0.2 fold
KD fold (SG1 = 1) [11]: 2.8 fold
Kd [12]: 4600 nM
Kd [2]: 260 nM
B7: M103205H795-MY466/M103202L889-SK1 (antibody)
heavy: B1 heavy with A233L, A234P
light: B1 light
notes: as for B1

KD fold (SG1 = 1) [4]: 2.2 fold
KD fold (SG1 = 1) [11]: 1.8 fold
Kd [14]: 2800 nM
B9: M103205H795-MY454/M103202L889-SK1 (antibody, human IgG1, kappa)
heavy: B1 heavy with A234S
light: B1 light
notes: as for B1

KD fold (SG1 = 1) [10]: 5.6 fold
B10: M103205H795-MY457/M103202L889-SK1 (antibody, human IgG1, kappa, name in EU numbering)
heavy: B1 heavy with A234W
light: B1 light

KD fold (SG1 = 1) [1]: 0.2 fold
KD fold (SG1 = 1) [3]: 1.6 fold
B11: M103205H795-MY459/M103202L889-SK1 (antibody)
heavy: B1 heavy with A233D, A234P
light: B1 light
notes: as for B1
